Experimental data reported in patent US20230113734A1.

Molecular target: SARS-CoV-2 S protein (spike protein) (SARS-CoV-2) (UniProt P0DTC2)
Assay: ELISA, S proteins on plate (the reference itself)

## positive control antibody (CR3022)
  Binding ability (relative to positive control antibody): 1
